Tested on: MS2 coat protein
Test: apparent KD of MS2 coat protein; designed switch direction (-1 OFF switch, 1 ON switch): 1; higher = weaker reporter binding
How it was run: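 For each design, the apparent KD is the median over clusters of curves fitted to normalised cluster fluorescence. Clusters held RNA switches with common flanks, transcribed on Illumina chips by stalled E. coli RNA polymerase. These were titrated with SNAP-549-labelled MS2 coat protein, doubling from 0.7 or 1.5 nM to 3 µM, without input, with 200 uM small-molecule ligand, or with an oligonucleotide input.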

[1] = input ligand: microRNA oligo, concentration not stated
[2] = Eterna round: R95, input ligand: microRNA oligo, concentration not stated
[3] = Eterna round: R95, input ligand: FMN 200 uM
[4] = Eterna round: R95, input ligand: none

Sequence	apparent KD of MS2 coat protein (input ligand: FMN 200 uM) [µM]	apparent KD of MS2 coat protein [1] [µM]	apparent KD of MS2 coat protein (input ligand: none) [µM]	apparent KD of MS2 coat protein [2] [µM]	apparent KD of MS2 coat protein [3] [µM]	apparent KD of MS2 coat protein [4] [µM]
AGUAGUUUAACAUGAGGAUCACCCAUGUAUUUUUCUGUAACCUAGGAUAUGGGCGUUGUAUUUAUCCAGAAGGAGGAUCGUUUA [JR_SSNG3_Sub048] (Eterna round: R96, puzzle: Same State NG 3)	0.0303	0.0283	0.0311			
AGUAUACAUGAGGAUCACCCAUGUCUGUAACGGACAGGAUAUGCGUUGCAUCACUGUAAUGCAGAAGGGUCCUGUA [Same State 1 - Mod of JMF's solution 1 v.2] (Eterna round: R96, puzzle: Same State 1)	0.0505	0.148	0.202			
AGUAUACAUGAGGAUCACCCAUGUCUGUAACGGACAGGAUAUGCGUUGCAUCACUGUAAUGCAGAAGGGUCCUGUA [Same State 1 - Mod of JMF's solution 1 v.2] (puzzle: Same State 1)				0.179		
AGUAUUUAUGCAGGAUAUGAUUAACAUGAGGAUCACCCAUGUGGUGUUGUGAGUAAGGAGAGUGAUCAGAAGGGCAUUUUUUUU [JMF's solution 74] (Eterna round: R96, puzzle: Same State NG 2)	0.512	0.324	0.38			
AGUCCAGCCAAAGCUGGACAAAAGCAUGUACAUGAGGAUCACCCAUGUUCAUGUACAAGCUUUUUGCUCGUCUUAAA [Mat - hsa-mir-208a - Mod of JL - 56] (puzzle: Sensor for hsa-mir-208a)				0.0161	0.413	0.465
AGUCCAGCCUGAGCUGGACAAAAGCAUGUACAUGAGGAUCACCCAUGUCAUGUACAAGCUUUUUGCUCGACUUAAAA [Mat - hsa-mir-208a - Mod of JL - D10] (puzzle: Sensor for hsa-mir-208a)				0.0142	0.569	0.624
AGUCCAGCCUGAGCUGGACAAAAGCAUGUACAUGAGGAUCACCCAUGUCAUGUACAAGCUUUUUGCUCGUAUUAAUA [Mat - hsa-mir-208a - Mod of JL - D30] (puzzle: Sensor for hsa-mir-208a)				0.0127	0.491	0.528
AGUCCAGCCUGAGCUGGACAAAAGCAUGUACAUGAGGAUCACCCAUGUCAUGUACAAGCUUUUUGCUCGUCUUAUAA [Mat - hsa-mir-208a - Mod of JL - D25] (puzzle: Sensor for hsa-mir-208a)				0.0149	0.643	0.704
AGUCCAGCCUGAGCUGGACAAAAGCAUGUACAUGAGGAUCACCCAUGUCAUGUACAAGCUUUUUGUUCGUCUUAAAA [Zipper 46 - 12] (puzzle: Sensor for hsa-mir-208a)				0.0148	0.794	0.5
AGUCCAGCCUGAGCUGGACAAAAGCAUGUACAUGAGGAUCACCCAUGUCAUGUACAGGCUUUUUGCUCGUCUUAAAA [Zipper 46 - 8] (puzzle: Sensor for hsa-mir-208a)				0.0161	0.213	0.3
AGUCCAGCCUGAGCUGGACAAAAGCAUGUACAUGAGGAUCACCCAUGUUCAUGUACAAGCUUUUUGCUCGUCUAAAU [Mat - hsa-mir-208a - Mod of JL - 46] (puzzle: Sensor for hsa-mir-208a)				0.0155	0.449	0.682
AGUCCAGCCUGAGCUGGACAGAAGCAUGUACAUGAGGAUCACCCAUGUCAUGUACAAGCUUUUUGCUCGUCUUAAAA [Zipper 46 - 3] (puzzle: Sensor for hsa-mir-208a)				0.0159	0.422	0.586
AGUCCAGCGAAAGCUGGACAAAAGCAUGUACAUGAGGAUCACCCAUGUUCAUGUACAAGCUUUUUGCUCGUCUUAAA [Mat - Sensor - JL mod - D95] (Eterna round: R96, puzzle: Sensor for hsa-mir-208a)	0.485	0.0141	0.467			
AGUCCAGCGAAAGCUGGACAAAAGCAUGUACAUGAGGAUCACCCAUGUUCAUGUACAAGCUUUUUGCUCGUCUUAAA [Zipper 52 - 13] (puzzle: Sensor for hsa-mir-208a)				0.0162	0.486	0.588
AGUCCAGCGAAAGCUGGACAAAAGCAUGUACAUGAGGAUCACCCAUGUUUAUGUACAAGCUUUUUGCUCGUUUUAAA [JL mod - D95 - 16] (puzzle: Sensor for hsa-mir-208a)				0.0131	0.365	0.433
AGUCCUGCCUGAGCAGGACAAAAGCAUGUACAUGAGGAUCACCCAUGUCAUGUACAAGCUUUUUGCUCGUCUUAAUA [Mat - hsa-mir-208a - Mod of JL - D41] (Eterna round: R96, puzzle: Sensor for hsa-mir-208a)	0.624	0.0137	0.735			

Sequence	apparent KD of MS2 coat protein (input ligand: FMN 200 uM) [µM]	apparent KD of MS2 coat protein [1] [µM]	apparent KD of MS2 coat protein (input ligand: none) [µM]	apparent KD of MS2 coat protein [2] [µM]	apparent KD of MS2 coat protein [3] [µM]	apparent KD of MS2 coat protein [4] [µM]
AGUCCUGCCUGAGCAGGACAAAAGCAUGUACAUGAGGAUCACCCAUGUCAUGUACAAGCUUUUUGCUCGUCUUAAUA [Mat - hsa-mir-208a - Mod of JL - D41] (puzzle: Sensor for hsa-mir-208a)				0.0154	0.556	0.854
AGUGAACAUGAGGAUCACCCAUGUGAGAGAAGUGUAGGAUAUGUGAGAGGCGGAGGAGGGACAGAAGGACAUGGAG [JR_SS!_Sub075] (puzzle: Same State 1)				0.042	0.0387	0.0485
AGUGAACAUGAGGAUCACCCAUGUGAGAGAAGUGUAGGAUAUGUGAGGAGCAGAGGAGGAACAGAAGGACAUGGAG [JR_SS!_Sub073] (puzzle: Same State 1)				0.0368	0.029	0.0485
AGUGAAGAAGCUGAGGAUAUCGUAAGGAGGACAUGAGGAUCACCCAUGUGUGUGGAAUUGGAGGACGAGAAGGCAGAGGAGUGGG [JR_SS2_Sub057] (puzzle: Same State 2)				0.0426	0.0393	0.0227
AGUUGUAAUACAGGAUAUAUAUUAUUUUUAUUUAUAGAAGGGUAAUCACAUGAGGAUCACCCAUGUAUAUACGAGGAAGAAGAG [JMF's solution 2] (Eterna round: R96, puzzle: Same State NG 1)		0.194				
AGUUGUGGAAAACUAUAGCAAAAGUAUGUACAUGAGGAUCACCCAUGUCAUGUACAAGCUUUUUGCUCGUCUUAAAA [ak 4 mod of one Eli's designs.] (puzzle: Sensor for hsa-mir-208a)				0.021	0.023	0.0233
AUAAAACACAUGAGGAUCACCCAUGUGGCCGAAGAAGGCACACAGGAUAUCAAGCAACUAAAGCUUGAGAAGGGUGAGACAAAA [Quistera] (Eterna round: R96, puzzle: Same State NG 3)	0.494	0.0307	0.0923			
AUAAAACAUGAGGAUCACCCAUGUAGACGGAGAAACGUCACAUAGGAUAUAGUCAGCGGCGUUGACUAGAAGGGUGGUAGAAAA [Qubeedbi] (Eterna round: R96, puzzle: Same State NG 3)	0.286	0.0974	0.251			
AUAAAACAUGAGGAUCACCCAUGUCAACAAAGAUGAGGAUAUGUACAGACUUCGGUCUGUACAGAAGGCAUAUAAU [salish99_ss1_r3_099] (puzzle: Same State 1)				0.0152	0.0154	0.0139
AUAAAACAUGAGGAUCACCCAUGUCAACAAAGUCGAGGAUAUGGGCAAAUAAAAUAAGAACCAGAAGGCGAAUAAC [salish99_SS1_r3_003] (Eterna round: R96, puzzle: Same State 1)	0.0397	0.215	0.282			
AUAAAACAUGAGGAUCACCCAUGUCAACAAAGUCGAGGAUAUGGGCAAAUAAAAUAAGAACCAGAAGGCGAAUAAC [salish99_SS1_r3_003] (puzzle: Same State 1)				0.339		
AUAAAACAUGAGGAUCACCCAUGUCAACAAAGUCGAGGAUAUGGGCAAAUAUAAUAAGAACCAGAAGGCGAAUAAU [salish99_ss1_r3_023] (puzzle: Same State 1)				0.204	0.0361	0.336
AUAAAACAUGAGGAUCACCCAUGUCAACAUAGUCGAGGAUAUGGGCAAAUAAAAUAAGAACCAGAAGGCGAAUAAU [salish99_ss1_r3_040] (puzzle: Same State 1)				0.714	0.0505	0.51
AUAAGGCAAGCUUUUUUCUCGUAGUGUAAACAUGAGGAUCACCCAUGUGCCCACCCUGGAUCUUUGGAUCGCAAAAC [Ceatgeor] (puzzle: Sensor for hsa-mir-208a)				0.0186	0.0239	0.0237
AUAAGGCAAGCUUUUUUCUCGUUGUGUAAACAUGAGGAUCACCCAUGUGCCCACCCUGGAUCUUUGGAUCGCAGAAC [Mais] (puzzle: Sensor for hsa-mir-208a)				0.0175	0.0408	0.0408
AUAAGUUUGAUGCUCGUCUCUCCGUACAGACAUGAGGAUCACCCAUGUAGUCGGGCAGUAGCCCGGCCAGUAUGGCC [Raatbeor] (puzzle: Sensor for hsa-mir-208a)				0.0288	0.103	0.119
